From the domain aggregation screens of Martell et al. (2025)

Test: soluble fraction after stress (log2 fold change); higher = more stays soluble; pooled small domains, quantitative proteomics
Conditions: stress: 50 degC
How it was run: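 The measure of aggregation propensity here is the base-two logarithm of the fold change in the soluble amount of each protein after stress. A higher value means more of that protein stays in solution. Stress was applied at 50°C to pooled libraries of small protein domains, read out by high-throughput quantitative proteomics.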

Sequence | soluble fraction (log2)
HMTMTKELGQRIRAERTARKMTQEELAERADLHPTYIGQVERGEKSLTIASLEKIVEGLGISFSDLFEN | -0.0406
HMTMVKYRYLTDGELKEFEEEFKHFLIANGLHSEEWERLNNEDSNKAIEVVALFSNLILDKV | -1.54
HMTMVLPDAARDKLKAIGLSIEHVEPSPVKDIFTVISREGVSYVSKDGDYIFTGSLFHVKGKDVVNTTEQA | 0.128
HMTNEAFITPSVLEWAIKRAGVSAESIHKKAEQWVSGKARPTFKQAVDIAKTLQIPFGYLWLKEPPKEQ | -0.551
HMTNELVNVNKLLDVMEPSIPLTALEIMTRLGIKSKETLRNSYLNPAIKLGMINLTSPLKPTSKNQMYYK | -0.307
HMTNKSKQRRNEILRASQELFNKKGFHDTSINDIMRRVGAAKGVFYYYFETKDQILDTLIEQHIA | -0.907
HMTNLTPKQQQIYQFIRASTQANGYPPTLREIGQQVGVRSPSTVKYHLDNLRTLGLLHWDGGKTRSITLP | -0.372
HMTNNFIVTWRNYNEEVLEIDVNVKKGSMPKYNGKTPEREGYQFVGWDPEITEVTKDITYVAQFM | -0.415
HMTNQKEITYSQFRQELDQGSIKSVSLQGSRIRGTYVDGGISFRTLAPNDADLIPSLMKHKVDIQVLPED | 0.247
HMTNSTGWSKSGGTQVTIREGETIYNLSRRYGVPAKSIMEANGIADATAVRAGQRISIPTYSY | 0.0505
HMTNVDELIGKEAVVVKEIRPYTTGEVKLDGKVWRAMSESKQVYKVDEIVTVLRIEGVTMII | -0.419
HMTNVETLVRMRLRSIRTTLGYSLDEIAERSNLSASTVSRIETGKRALSIDVLVPLAAALQVSVDDLLRAE | -2.43
HMTNYREILRLRSLGLNHSRIAESMGISRPTVIAALQRAQTQELNWQAAESLSDIDLAQRLNP | -0.395
HMTNYYTVTFKEGDTVLKEVSVHSGDGVPYAVAPKRDDIVGWSYNGNTYTTDLNTLKIKKEVTFTAVT | -0.222
HMTPAIEKTAVIVFINGKKYYVHTVKSGETLYSIAKAYKVDEKVIKEHNPNVADGLRIDQTVKIPVPEQVK | 0.144
HMTPAPHESLTDREMEVLKLLAQGLSNQEIADKLFIGVKTVKYHITNIFSKLGVEDRTQAAIYAHKQGLA | 0.0163
HMTPDDSYIAGYAAGILKHQFLIDAPELIVRNGTITIPADKVSAGDRAKVVQILSGIPGVTRVEVG | -0.0502
HMTPDVHRGDTITVSLRAGAIRVRVPAKALEEGAAGGEIRVVNLTGGREYRVRVTGPGTAEAIL | 0.0275
HMTPEGAYTVSEIVKVINSFADEYKVPFTMHVSGYKYEEIAQQLGLPIGTVKSRIFFARKRLQELLN | -0.952
HMTPEPVTMYITSLTEFRSEPNTEAGIIKLLDAYEEVEMIESRGEWSKISYGDQIGYILSEFLTAENRT | -0.0121
HMTPILTAQQVVAALQAAGYRNVHDLEFEHGRWEADAVNAAGQRVELHINPYTGAIERERLD | ≥ 0.62
HMTPKTSVPKPGQTVVVRKGDTIYALARIHDITPADLIAWNRLDNPSQIYPGQVIRLYPQGA | -0.107
HMTPKVDLTVAEDGSASAVIAGLRVEIDAAGKVTAVAPADGTTDLSSVAPEAVKEAMDNALAAYTASKG | 0.0555
HMTPLFNQGEVLKGFVLQTGTNNRVLLQIGTAKVLADAQTPLKAGEQLTLRVEATGPRTVLQILG | 0.553
HMTPLILTAQEGGERLDAFVASQVEDLTRSAAQRLLEQGAVTSGGKPLKKNAKTTPGMVVEVLLPDPQ | 0.251

Sequence | soluble fraction (log2)
HMTPPPTNSREWMEWGISHGLDANLDRSGQVVFYTDDRVVADAAELSGADLERDNMGQFVIYTGAYDKG | 0.0665
HMTPQEQWNNAYLLAKDYYDANGNLDIDEKYKTKDGFELGSWLTTQRNVYKRGKLSPEKTKKLEEIGISF | 0.128
HMTPQGALDYSRNAKYLRDQVTAINYLKQARLSLNTTDANYRQTLEQINQAIAKHNQALQQAGVQSQQLAT | 0.0556
HMTPTPQQNNILVGQTGTTLTRLAPMGKVRVGEVTAEAKTIDGYINPRQSVEVIGFENTVVIVRAV | 0.144
HMTPVIINESGGDQDTRIEGLNDNNLLYVDASTDRVGVGVATPTQKLDVNGDVAISGGSLYLSQ | -0.00396
HMTPVKAPLPGVVTKINVSVGQQVKKGENVLVLEAMKMENNIAAEADGTVSGIAVKAGDSVLEGAVLLTI | 0.184
HMTPVTYELTVQSGAGQRIDKYLSEQLADLTRSYLQKLLKDGGVTVNGKTVKSNYKLSENDQIFLEVPDA | 0.0372
HMTPVYLNARQKQILAFLKREEPAKVGDIAHALKTISINTLKKDLLYLRQKNLIESHGVLKGTIYTVK | -1.41
HMTQEFIVPKVTGYTVEDAMNLSGVKDVFEITVDSTEKSDQPAGIILFQDPKDGSSRKSDLVIHVVVSAGS | -0.137
HMTQEQKQQISDQLRAYVEQKGSGNKAAASMNGVSSATISKVLAGKWETISEDMWRSIAAQTGH | 0.106
HMTQFSLTTEEINVLKKSYSEFTDSDKELFNKILEKYNKFKNESSNDIAFEAKILEKLQEIENFYE | -0.126
HMTQMSVLFSELEAKDAATIADKLRERNIPYELSNNGSTILIPQEVLHDTRLSLASEGLPES | -0.0936
HMTQPAEINRLVEQMGSSDYKSRQEAYERLHQMGPGILDLIYPYRNHADPEIQTRVRELILSYRW | 0.264
HMTQQNRDELYRRMIDAGWDQLVRNGIRSLRVEQVAAAVGIAKGTFYHFFDSKDDFIYAMLMENRQ | -3.07
HMTQSPLHWSHRPIDLSELLTYLDRDGAFVYASGHKAPFTEVVRGFEHLLNIRLGDPRDVKRSVLQR | -0.369
HMTQTGEVIRWDAERGFGFIATADGRRHVFFHVRDFRGGAAPGVGLRVGFEEIQVGGKGPRAMDVRPL | -0.48
HMTRDGMTKEAFDSLLEDIMNILLDNGLKATTMGSIAKSLKMSKRTLYEIFSSKSQMVEEAIIASHTKMM | 0.15
HMTREAILDTAEELLQRRGYNAFSYHHIAVQLGIRNAAIHYHFPAKEDLGIELVSRFRIRLAE | -0.146
HMTRLSSREAQVISLVRDGMTNQQIAERLELSPLTIKNHVQNILRKLDVSNRAQAVAKAVKARLI | -0.3
HMTRRGPLTEGDRVQVRDPKGRFHQVILVRGGRFQSNRGGFNHDDVIGRPDGQVIITDEGRQFQIL | 0.512
HMTRYEQLAAQIRQQIEDNIWQSGDRLPSLRDTVKQSGLSLMTVLQSYQLLESQGWITARPQSGYYVAHR | 0.348
HMTSGTLTLTQDTPVYTEPNKDGGVAYVQPQGDIQWDKYIFANGDNWYSFVQKNRDQEVRFYIAYSDVG | -0.0923
HMTSHSFVITEEVGQRLDRFISDQLDTVSRTMIQKHIRSGAVVVNGKQVKSNYLLVLNDRINIALK | -2.64
HMTSISMDEKVVLGWHQVTTGAANSGMDKVVSNTSGLNVISPTWFKLSDNKGNYISIASKDYVDAAHKKGL | -0.232
HMTSKTLSADGGENTRLDKFLSNHLPEISRTKIQKMINDGLVYVNQNYAKASLVLDGTELISYTIPD | 0.0679

Sequence | soluble fraction (log2)
HMTSLTDDELSVVMLVREREISFDEITSETGFDAARLNSVLTMLKIKGIIDETTGKHYRISGGA | 0.146
HMTSLVRTSNLDGFEPLARSIGVDPVMELMRFGIPPDALIRENMFISFIGFIRLLEHTALAG | 0.103
HMTSMYYLNKAVKEGNAKAIRQLLSAGININVRKRETSTPLDFAIKYKQTEIADLLRKHGGKTAEELKAEE | -0.343
HMTSNEKARNAASAERRADIVAAARELYEEQGLSKTSVQDITNRMGVARSLFYHYFPDKEAVTSAVLDDYV | 0.244
HMTSPELIELGERIRKRRQEMNLSQEALAEKAGISINTVSRVEGGQTAMSIEIFRKMIEILETDANGL | -0.212
HMTSRIHDYWTSPGQPGYAKIGWGTAGDFRRAKALIGEKIAANSPEDMRYLNQIIAQWHFDALGYWPGDH | -2.49
HMTSRLLTPRQRYVFDTAMKEGFYDVPRRITLTELASVLDVAKSTLSAQLHRIESTVHHAYADDIRRRS | -2.35
HMTSSQLNIEELERRMMMHLEQNGFITRSIYTNLTGRLKWKATEDLKIFVEKGLIRKMGRGNQMYYVKVE | -1.7
HMTSSQRDSILEFLKTRKDHPTADVVYMNVRKSFPNISLGTVYRNLTLLSDIGQIAKIRVGDGVDHFDADT | -0.526
HMTSSSGTITADWLNVRSGAGTNFSRLGSIAGGTRLTVISVHGEWYKITASFEGEIRTGYVHSQYVQMDGE | -3.96
HMTSTEQQIEQFIGTLVSLGGSAGNQRLLEALGWQDSIYQRVKQQLIDDGRIRPGRGRGGSVVLAE | -0.074
HMTSVAGIERFLASGAIKGMGAATAKLIVEHFGADTLNMLDMYPERLTEIKGIGPKKATAIIEGYRELS | -0.751
HMTSVMAWRLITPIPQHGIIRSSQVQLQKHAPNSLKFLDVDSSPVGKQVKHGIAAGHWLSKDDFTE | -0.937
HMTTAASIGRLVRDARKQRGLTQHELASLLSTSQSAIHRIESGNQNLSLEMINRIAQALESPLIVPGG | -0.163
HMTTIRQQAEVPLSAAGRRFDQALAEMFPAYSRSRLSGWIKAGAATLDGAPAAPRQLLRGGERVELDVELE | -0.0501
HMTTKGGLVRDTVLNEFRDSEFTRREVELVLNGVASERTIRGALSEMVERGELTQVNFGISTRYRLNQ | -0.385
HMTTLEGIEKYLGSGMIRGIGPAYAGRLTKVFGEAVFDVIEQSPERLREVEGIGPKRVSRIVSGWAEQ | -0.264
HMTTLLNHLKGTRLEAGLSQQALARLAGISRQAYSALESGSSNPSTEVALRLARALKTSVDHLFSLPE | -0.989
HMTTQVPYTAKLININGGSVVNFRKEPGMNTTIIRTYPVGTEVTVLETGVNWSKVEIDGVTGYVSSYFL | -0.699
HMTTRLLTPRQRQVFDIAIREGFYDSPRRISLTELADLLGVAKSTLSVQLQRVESTIVHTFSEEIRRRS | -2.57
HMTTRQREALLDYLSRHPDQPLTVREIAAGVEPDGVSLSAVYRNLAELEAAGLIRRESRPGSREAVVQYV | 0.049
HMTTTTTYITNTDAVNIRQQATTSSTSLGKLAKNTILSVKKKSGDWYQITYKKQTAYIHASLVDKKTAKVT | -0.556
HMTTVDYDALRAAILQQVVSEDTTPALTTENTEIKYKFKFGLDTWVDLDGGKIAPAVSAKSYEIQISFKG | 0.132
HMTTYVNGSWSGWNGSTVVKLTDGSVWRQAEYHYEYHYAYRPQARLERDELFVEGMSRGVRV | -0.104
HMTVADMQQKANVKRRNSNSHEAILDATVKLLGSSGYIDFSIEKVASQAGVGKQTIYRWWPSRADLVLEVW | -0.109
